From patent US20100184701A1 (TREVENA, published 2010)

T1: human angiotensin 2 type 1 receptor (human, UniProt P30556 1-359)
T1 sequence (looked up): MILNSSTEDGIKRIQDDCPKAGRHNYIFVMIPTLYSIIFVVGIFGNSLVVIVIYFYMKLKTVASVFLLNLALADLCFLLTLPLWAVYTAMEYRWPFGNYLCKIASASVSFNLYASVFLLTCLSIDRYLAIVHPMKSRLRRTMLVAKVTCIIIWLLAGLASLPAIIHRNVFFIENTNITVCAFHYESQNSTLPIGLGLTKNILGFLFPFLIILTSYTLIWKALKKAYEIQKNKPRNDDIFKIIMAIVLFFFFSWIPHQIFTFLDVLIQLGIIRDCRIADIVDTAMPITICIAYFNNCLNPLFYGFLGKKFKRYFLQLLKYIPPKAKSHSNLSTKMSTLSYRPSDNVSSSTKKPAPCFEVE

T2: rat angiotensin 2 type 1 receptor (rat, UniProt P25095 1-359)
T2 sequence (looked up): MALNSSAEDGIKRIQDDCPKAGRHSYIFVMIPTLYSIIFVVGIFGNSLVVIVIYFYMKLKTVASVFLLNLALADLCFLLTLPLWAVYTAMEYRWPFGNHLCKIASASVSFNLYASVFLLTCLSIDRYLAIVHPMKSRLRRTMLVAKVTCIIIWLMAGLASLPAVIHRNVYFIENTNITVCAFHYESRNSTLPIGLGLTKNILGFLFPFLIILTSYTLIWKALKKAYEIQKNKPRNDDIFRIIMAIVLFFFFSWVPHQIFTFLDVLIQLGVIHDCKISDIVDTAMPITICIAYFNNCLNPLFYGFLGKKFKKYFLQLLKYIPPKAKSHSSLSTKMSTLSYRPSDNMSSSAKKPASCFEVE


How the values were obtained:
[1] = target: T1, human angiotensin 2 type 1 receptor; assay: cell-based or functional assay
[2] = target: T2, rat angiotensin 2 type 1 receptor; assay: cell-based or functional assay

| Binder | IP One EC50 (M) [1] [M] | b-arrestin2 EC50 [1] [µM] | b-arrestin2 Max (%) [1] [%] | IP One Max (%) [2] [%] | b-arrestin2 EC50 [2] [µM] | b-arrestin2 Max (%) [2] [%] | IP One EC50 (M) [2] [M] | IP One Max (%) [1] [%] |
| --- | --- | --- | --- | --- | --- | --- | --- | --- |
| DRVYYHP (D-Asp at 1; C-terminal amide (NH2)) [SEQ ID NO: 58] | > 1e-05 | 0.33 | 48.7 | 9.94 | 0.26 | 81.1 |  |  |
| ERVYYHP (C-terminal amide (NH2)) [SEQ ID NO: 59] | > 1e-05 | 1.4 | 19.5 |  |  | 27.8 | > 1e-05 |  |
| ERVYYHP (D-Glu at 1; C-terminal amide (NH2)) [SEQ ID NO: 60] | > 1e-05 |  | 44 |  | 0.18 | 79.3 | > 1e-05 |  |
| RVYIHP (C-terminal amide (NH2)) [SEQ ID NO: 13] | > 1e-05 |  | 43.4 |  |  | 165 | > 1e-05 |  |
| DRVYYHP (C-terminal amide (NH2)) [SEQ ID NO: 57] |  |  | 42.1 | 35.3 |  | 64.4 |  | 10 |
| DRVYYHP (N-Me-Asp (N-methyl-L-aspartic acid) at 1; C-terminal amide (NH2)) [SEQ ID NO: 61] | > 1e-05 | 1.2 | 37.5 |  | 2.1 | 60.4 | > 1e-05 |  |

The remaining lines, values ahead:

| IP One EC50 (M) [1] [M] | b-arrestin2 EC50 [1] [µM] | b-arrestin2 Max (%) [1] [%] | IP One Max (%) [2] [%] | b-arrestin2 EC50 [2] [µM] | b-arrestin2 Max (%) [2] [%] | IP One EC50 (M) [2] [M] | IP One Max (%) [1] [%] | Binder |
| --- | --- | --- | --- | --- | --- | --- | --- | --- |
| > 1e-05 |  | 37.8 |  |  | 67.3 | > 1e-05 |  | DRVYFHP (N-Me-Asp (N-methyl-L-aspartic acid) at 1; C-terminal amide (NH2)) [SEQ ID NO: 65] |
| > 1e-05 |  | 35.9 |  |  | 50.1 | > 1e-05 |  | DRVYFHP (C-terminal amide (NH2)) [SEQ ID NO: 63] |
| > 1e-05 |  | 30.6 |  | 10 | 58.5 | > 1e-05 |  | ERVYFHP (N-Me-Glu (N-methyl-L-glutamic acid) at 1; C-terminal amide (NH2)) [SEQ ID NO: 66] |
| > 1e-05 |  | 24.7 |  |  | 44.2 | > 1e-05 |  | ERVYYHP (N-Me-Glu (N-methyl-L-glutamic acid) at 1; C-terminal amide (NH2)) [SEQ ID NO: 62] |
| > 1e-05 |  | 38.3 |  |  | 60.6 | > 1e-05 |  | ARVYIHPA (NM-D-Ala (N-methyl-D-alanine) at 1; D-Ala at 8) [SEQ ID NO: 82] |
| > 1e-05 | 1.2 | 20.4 |  |  | 26.9 | > 1e-05 |  | ERVYFHP (C-terminal amide (NH2)) [SEQ ID NO: 64] |
